Assay results as given in patent publication US20260056186A1 (JIANGSU HENGRUI PHARMACEUTICALS, published 2026).

What was measured:
IFNAR1 [1] = molecular target: T1, IFNAR1 (human, UniProt P17181 28-557); assay: cell-based or functional assay
T1 sequence (looked up): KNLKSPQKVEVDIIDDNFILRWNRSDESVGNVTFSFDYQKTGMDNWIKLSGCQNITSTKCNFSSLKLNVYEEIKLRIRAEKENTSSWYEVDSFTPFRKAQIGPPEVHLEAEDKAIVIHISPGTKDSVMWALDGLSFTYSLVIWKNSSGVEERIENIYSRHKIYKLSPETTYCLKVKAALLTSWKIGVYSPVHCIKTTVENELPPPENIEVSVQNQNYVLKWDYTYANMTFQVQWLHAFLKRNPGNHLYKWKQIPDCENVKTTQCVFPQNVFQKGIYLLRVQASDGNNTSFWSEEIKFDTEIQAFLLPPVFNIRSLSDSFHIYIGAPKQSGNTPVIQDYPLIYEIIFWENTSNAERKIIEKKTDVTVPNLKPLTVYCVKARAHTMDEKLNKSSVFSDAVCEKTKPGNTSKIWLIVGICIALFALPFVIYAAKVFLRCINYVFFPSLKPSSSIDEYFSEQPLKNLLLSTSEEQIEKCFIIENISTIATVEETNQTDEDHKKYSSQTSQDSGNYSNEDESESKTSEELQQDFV

IFNAR1 [2] = molecular target: T1, IFNAR1; assay: cell-based or functional assay; remark: listed apart in the source
[3] = molecular target: recombinant human BAFF (R&D cat: 7537-BF-025/CF) (human, UniProt Q9Y275 134-285); assay: cell-based or functional assay
Chain of recombinant human BAFF (R&D cat: 7537-BF-025/CF) (Q9Y275 134-285 limits assumed): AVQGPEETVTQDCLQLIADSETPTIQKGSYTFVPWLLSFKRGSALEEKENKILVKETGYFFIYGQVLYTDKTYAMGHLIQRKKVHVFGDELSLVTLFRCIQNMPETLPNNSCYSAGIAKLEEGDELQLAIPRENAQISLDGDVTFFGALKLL

[4] = molecular target: T2, recombinant human APRIL (R&D cat: 5860-AP-010/CF) (human, UniProt O75888 105-250, limits assumed); assay: cell-based or functional assay
T2 sequence (looked up): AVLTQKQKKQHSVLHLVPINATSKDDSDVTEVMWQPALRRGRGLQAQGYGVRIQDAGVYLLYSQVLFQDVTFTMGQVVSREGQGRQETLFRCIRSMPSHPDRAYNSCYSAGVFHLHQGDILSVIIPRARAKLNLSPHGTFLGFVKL

[5] = molecular target: T3, APRIL (Acro Biosystems, Cat: APL-H52D1) (UniProt O75888 115-250, limits assumed); assay: ELISA, APRIL coated; reference telitacicept
T3 construct: also called ARPIL
T3 sequence (looked up): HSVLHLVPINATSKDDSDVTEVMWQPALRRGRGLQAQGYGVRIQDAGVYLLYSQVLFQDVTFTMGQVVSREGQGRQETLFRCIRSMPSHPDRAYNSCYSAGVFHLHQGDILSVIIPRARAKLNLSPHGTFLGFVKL

[6] = molecular target: T3, APRIL (Acro Biosystems, Cat: APL-H52D1); assay: ELISA, APRIL coated at 1 ug/mL, anti-human Fc-HRP, OD450
Procedure: The capabilities of fusion proteins B606401, B637302, B746201, and B805201 to bind to BAFF and APRIL were assessed by ELISA as follows:
BAFF (PeproTech, Cat: 310-13) or ARPIL (Acro Biosystems, Cat: APL-H52D1) was diluted to 1 μg/mL with PBS, and a 96-well plate was coated with the dilution overnight at 4° C. The plate was washed with PBST and blocked with Blocking Buffer (PBST containing 1% BSA) at 37° C. for 1 h. The plate was tapped. The test antibodies were diluted with Blocking Buffer. Incubation was performed at 37° C. for 1.5 h. The plate was washed with PBST. An HRP-mouse anti-human Fc antibody (GenScript, Cat: A01854-200) was diluted with Blocking Buffer. Incubation was performed at 37° C. for 40 min. The plate was washed with PBST. 100 μL of TMB substrate solution (Biopanda, Cat: TMB-S-003) was added, and color development was performed at 37° C. for 3 min. 100 μL of ELISA stop solution (Solarbio, Cat: C1058) was added. OD450 was measured.

B1: B746201 (other)
heavy: EVQLVQSGAEVKKPGESLKISCKGSGYIFTNYWIAWVRQMPGKGLESMGIIYPGDSDIRYSPSFQGQVTISADKSITTAYLQWSSLKASDTAMYYCARHDIEGFDYWGRGTLVTVSSASTKGPSVFPLAPSSKSTSGGTAALGCLVKDYFPEPVTVSWNSGALTSGVHTFPAVLQSSGLYSLSSVVTVPSSSLGTQTYICNVNHKPSNTKVDKRVEPKSCDKTHTCPPCPAPEFEGGPSVFLFPPKPKDTLMISRTPEVTCVVVDVSHEDPEVKFNWYVDGVEVHNAKTKPREEQYNSTYRVVSVLTVLHQDWLNGKEYKCKVSNKALPASIEKTISKAKGQPREPQVYTLPPSRDELTKNQVSLTCLVKGFYPSDIAVEWESNGQPENNYKTTPPVLDSDGSFFLYSKLTVDKSRWQQGNVFSCSVMHEALHNHYTQKSLSLSPGKGGGGSGGGGSGGGGSMLQMAGQCSQNEYFDSLLHACIPCQLRCSSNTPPLTCQRYCSTSCREEQGEFYDHLLRDCISCASICGQHPKQCAAFCE
light: EIVLTQSPGTLSLSPGERATLSCRASQSVSSSFFAWYQQKPGQAPRLLIYGASSRATGIPDRLSGSGSGTDFTLTITRLEPEDFAVYYCQQYDSSAITFGQGTRLEIKRTVAAPSVFIFPPSDEQLKSGTASVVCLLNNFYPREAKVQWKVDNALQSGNSQESVTEQDSKDSTYSLSSTLTLSKADYEKHKVYACEVTHQGLSSPVTKSFNRGEC
notes: Fusion protein of anifrolumab, TACI-19-16 and BCMA-ECD-2 (C-terminus of the heavy chain)
B1 was tested, and the “IC50, inhibition of IFN-alpha-induced in vitro differentiation of B cells into plasma cells (CD27+ CD38+)” value (IFNAR1 [1]) was 1.9 nM, the “IC50 (nM), inhibition of the activity of type I interferons (IFN-beta, HEK-Blue IFN-alpha/beta reporter cells)” value (IFNAR1 [2]) was 1.64 nM and the “CD27+ CD38+ plasma cell count, mean value, BAFF + APRIL-induced (both ligands together), drug at 100 nM (IgG1: 2496)” value [3] was 520 cells. The “CD27+ CD38+ plasma cell count, mean value, BAFF + APRIL-induced (both ligands together), drug at 1000 nM (IgG1: 2279)” value [3] was 410 cells, the “CD27+ CD38+ plasma cell count, mean value, BAFF + APRIL-induced (both ligands together), drug at 10 nM (IgG1: 2687)” value [4] was 575 cells and the “CD27+ CD38+ plasma cell count, mean value, BAFF + APRIL-induced (both ligands together), drug at 100 nM (IgG1: 2496)” value [4] was 520 cells. The “CD27+ CD38+ plasma cell count, mean value, BAFF + APRIL-induced (both ligands together), drug at 1000 nM (IgG1: 2279)” value [4] was 410 cells, the “EC50 relative to telitacicept” value [5] was 0.333 fold and the EC50 [6] was 0.179 nM. It also gave an Emax [6] of 2.8.
